Measurements from PMC10902354, “Deficiency in PHD2-mediated hydroxylation of HIF2α underlies Pacak-Zhuang syndrome” (Communications Biology, 2024).
“Also recorded” adds a separate entry of the source. Square brackets hold non-standard residues; d marks the D form. Hyp = O=C(O)[C@@H]1C[C@@H](O)CN1

Tests used:
[1] = target: T1, PHD2 (prolyl-hydroxylase domain, residues 181–426) (Homo sapiens, UniProt Q9GZT9); assay: Aggregation of PHD2 by HIF2α-CODD peptides in MST experiments (MST time traces); assay type: physicochemical; details: peptide dilution series with PHD2, room temperature
T1 construct: encodes for His6-PHD2 (prolyl-hydroxylase domain, residues 181–426); His6 (N, cleaved yes); made in house; host or cells: E. coli BL21(DE3)
T1 sequence (Q9GZT9 181-426): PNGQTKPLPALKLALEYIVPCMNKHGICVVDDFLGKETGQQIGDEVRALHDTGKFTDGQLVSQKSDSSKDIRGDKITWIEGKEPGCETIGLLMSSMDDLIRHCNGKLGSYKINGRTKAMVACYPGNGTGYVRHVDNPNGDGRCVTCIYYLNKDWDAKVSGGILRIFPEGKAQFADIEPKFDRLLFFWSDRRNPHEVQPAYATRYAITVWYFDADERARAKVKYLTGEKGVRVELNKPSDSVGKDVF
Protocol: MST measurements were taken using a Monolith NT.115 (Nanotemper Technologies) at room temperature using standard MST capillaries (Nanotemper Technologies). A 2x stock of PHD2-647 was created by diluting PHD2-647 from a 10 µM stock to 50 nM with MST Buffer (50 mM Tris–HCl pH 7.5, 1 mM NOG, 10 µM FeSO4, 5 mg/ml BSA). For each HIFα-CODD peptide, ~1 mg dry weight of peptide was dissolved in 200 µl of 50 mM Tris–HCl pH 8.0 and concentrations were measured using UV absorbance at 280 nm for most peptides and BCA assay (Thermo Scientific) for Y532C and Y532H peptides using known concentrations of the WT HIF2α-CODD peptide to create a standard curve. The UV absorbance extinction coefficients for all HIF1α-CODD and HIF2α-CODD peptides used in this study is 1490 M^−1 cm^−1 except for HIF2α-CODD D539Y (2980 M^−1 cm^−1), HIF2α-CODD G537W (6990 M^−1 cm^−1) and HIF2α-CODD Y532C and Y532H which were not analyzed via absorbance at 280 nm due to the lack of any Tyrosine or Tryptophan residues in the peptides. For each experiment, 16 different concentrations of 15 µl peptide solution were created by 2-fold serial dilution of the peptide stock in 50 mM Tris–HCl pH 8.0. Each of the 16 peptide solutions was then mixed with an equal volume (15 µl) of 2× PHD2-647 solution resulting in a final 1× concentration of PHD2-647 at 25 nM. […] MST measurements were taken at 20% fluorescence excitation LED power and 40% (medium) infrared laser power. For each MST time trace initial fluorescence (pre-infrared laser activation) was recorded for 5 s, infrared laser on time was 20 s, and fluorescence post-infrared laser deactivation was recorded for 3 s. MST data was analyzed using the M.O. Affinity Analysis software (Nanotemper Technologies) and the 1:1 Kd binding model was fit to experimental data. […]
(also on this page, place not known: Relative Fluorescence Relative Fluorescence -10 30 Relative Fluorescence -10 30 Relative Fluorescence -10 30 Relative Fluorescence -10 30 Relative Fluorescence aggrega?on, (f) curves HIF2α-CODD)

[2] = target: T1, PHD2 (prolyl-hydroxylase domain, residues 181–426); assay: Microscale thermophoresis (MST) binding of HIFα-CODD peptides to the catalytic domain of PHD2; details: for Binding to PHD2 (in words): 25 nM PHD2-647, with NOG, room temperature; for Kd (MST-determined PHD2/HIFα-CODD complex dissociation constant): 25 nM Alexa 647-labeled PHD2, Tris–HCl with NOG (1 mM NOG, 10 µM FeSO4, 5 mg/ml BSA in 2x MST Buffer pH 7.5), peptide in Tris pH 8.0, room temperature, 10 min incubation, 1:1 Kd model, triplicate measurements, highest concentration omitted for Y532H and P531A (aggregation)
Protocol: To determine if there is a direct effect of HIF2α mutations on PHD2 binding, we devised a quantitative method for determining the dissociation constant (Kd) of the HIF2α-CODD peptides and the catalytic domain of PHD2 using microscale thermophoresis (MST)[13],[14] in the presence of the PHD inhibitor n-oxalylglycine (NOG) to inhibit reaction turnover.
PHD2 was purified via a previously described but modified procedure[4],[30]. […] Cells were grown to an OD600 of 0.8 at 37 °C and expression of His6-PHD2 was induced with a final concentration of 0.5 mM IPTG. Cells were grown for an additional 3 h post-induction at 37 °C and harvested via centrifugation. Cell pellets were either used immediately for purification or stored at −80 °C for later use. Cell pellets were resuspended in Lysis Buffer (50 mM Tris–HCl pH 7.9, 500 mM NaCl, 5 mM Imidazole) containing 1x SigmaFast protease inhibitor cocktail (Sigma-Aldrich) and lysed with 3 passes through an Emulsiflex-C3 cell disruptor (Avestin) at 20-30 kPSI. […] Clarified lysates were applied to a 2 ml Ni-NTA (Thermo Scientific) column pre-equilibrated with Lysis Buffer. The beads were washed with 10 ml Lysis buffer and 2 × 30 ml of Wash Buffer (50 mM Tris–HCl pH 7.9, 500 mM NaCl, 30 mM Imidazole). His6-PHD2 was eluted by applying 10 ml Elution Buffer (50 mM Tris–HCl pH 7.9, 500 mM NaCl, 1 M Imidazole) to the column. Ni-NTA purified His6-PHD2 was dialyzed using a 10 kDa cut-off dialysis membrane against 2 L of Dialysis Buffer (50 mM Tris–HCl pH 7.5) for 4 h at 4 °C. […] Dialysis and thrombin cleavage were allowed to continue overnight at 4 °C. Thrombin-cleaved PHD2 was collected and applied to a 2 ml Ni-NTA column pre-equilibrated with Dialysis Buffer to remove uncleaved protein and cleaved His6 tags. The flow-through was collected and the beads were washed with 10 ml of Dialysis Buffer supplemented with 5 mM imidazole. The 5 mM imidazole eluate was pooled with the flow through and concentrated with an Amicon 10 kDa cut-off centrifugal concentrator (Millipore) to a volume of ~600 µl. The concentrated PHD2 was then applied to a Superdex 75 Increase 10/300 GL column (Cytiva) equilibrated with Dialysis Buffer or Labeling Buffer (50 mM HEPES pH 7.5, 150 mM NaCl) depending on the intended use of the sample. Eluted fractions containing PHD2 were collected and pooled. For the His6-PHD2 used in the indirect hydroxylation assay, no thrombin was added during dialysis steps therefore the His6-tag was not removed and the subsequent passage of the sample through Ni-NTA beads to remove His6-tags was not performed. Otherwise, the purification protocol for His6-PHD2 is the same as thrombin-cleaved PHD2. All purification steps were analyzed by SDS–PAGE and the Superdex 75 Increase chromatogram was used to assess size and aggregation, see Supplementary Fig. 5 for a representative purification assessment.
Labeling was conducted at room temperature for 1 h in the dark. Excess dye was then removed first by the passage of the sample through a PD-10 desalting column containing Sephadex G-25 resin (Cytiva) equilibrated with Dialysis Buffer and then any remaining excess dye was removed via repeated 10-fold dilution in Dialysis Buffer and subsequent concentration in an Amicon 10 kDa cut off centrifugal filter until the dye could no longer be detected in the concentrator flow through by Absorbance at 650 nm.
MST measurements were taken using a Monolith NT.115 (Nanotemper Technologies) at room temperature using standard MST capillaries (Nanotemper Technologies). […] For each HIFα-CODD peptide, ~1 mg dry weight of peptide was dissolved in 200 µl of 50 mM Tris–HCl pH 8.0 and concentrations were measured using UV absorbance at 280 nm for most peptides and BCA assay (Thermo Scientific) for Y532C and Y532H peptides using known concentrations of the WT HIF2α-CODD peptide to create a standard curve.

[3] = tested on: pVHL; details: prolyl-hydroxylated HIF2α peptides; cited from earlier work
From the text: (§1) Pacak-Zhuang syndrome is a pseudohypoxic disease resulting from the inappropriate stabilization of HIF2α under normoxic conditions caused by gain-of-function missense mutations in the CODD region of HIF2α. These missense mutations stabilize HIF2α by ultimately inhibiting proteasome-mediated destruction of HIF2α[2],[6],[21]. Previously, we hypothesized that the mutations in the HIF2α-CODD region disrupted the pVHL/HIF2α interface. This appeared to be true for most Class 1 mutants examined to date.

[4] = tested on: PHD; details: cited from earlier work
From the text: as §1

[5] = target: Alexa 647 labeled PHD2 (catalytic / prolyl-hydroxylase domain, residues 181-426) (human) (UniProt Q9GZT9); assay: MST; 25 nM Alexa 647 labeled PHD2, unlabeled peptide in 16 two-fold dilutions; room temperature; MST Buffer 50 mM Tris-HCl pH 7.5, 1 mM NOG, 10 µM FeSO4, 5 mg/ml BSA mixed 1:1 with peptide in 50 mM Tris-HCl pH 8.0; 1:1 Kd model; triplicate
Sequence of Alexa 647 labeled PHD2 (catalytic / prolyl-hydroxylase domain, residues 181-426) (human) (Q9GZT9 181-426): as above

Kd (MST-determined PHD2/HIFα-CODD complex dissociation constant) ([2]; MST) | Molecule | Aggregation of PHD2 in MST experiments [1] | Binding to PHD2 (in words) ([2]; MST) | also measured
– | CC[C@H](C)[C@H](NC(=O)[C@H](Cc1ccc(O)cc1)NC(=O)[C@@H]1CCCN1C(=O)[C@H](C)NC(=O)[C@H](CC(C)C)NC(=O)[C@@H](NC(=O)[C@H](CCC(=O)O)NC(=O)[C@H](CC(C)C)NC(=O)[C@H](CC(=O)O)NC(=O)[C@H](CC(C)C)NC(=O)[C@H](CCC(=O)O)NC(C)=O)[C@@H](C)O)C(=O)N1CCC[C@H]1C(=O)N[C@@H](CCSC)C(=O)N[C@@H](CC(=O)O)C(=O)NCC(=O)N[C@@H](CCC(=O)O)C(=O)N[C@@H](CC(=O)O)C(=O)N[C@@H](Cc1ccccc1)C(=O)N[C@@H](CCC(N)=O)C(=O)N[C@@H](CC(C)C)C(N)=O [HIF2α WT] | no aggrega?on | showing binding | Kd ([2]; read-out: Kd (MST-determined PHD2/HIFα-CODD complex dissociation constant)): 34 ± 2 µM
No binding | HIF2α A530V: Class 1 mutant HIF2α-CODD peptide (Ac-ELDLETLVPYIPMDGEDFQL-NH2) | – | – | Binding affinity for pVHL (in words) [3]: no effect on pVHL binding; PHD-mediated hydroxylation (in words) [4]: appeared to decrease PHD-mediated hydroxylation; PHD2 affinity / Kd compared with another peptide (in words) ([2]; MST, with NOG): significant effect on PHD2 binding affinity; also recorded: more detrimental to the interaction than A530T; Kd (Fit Results, Fit Model Kd) ([2]; MST, target WT-PHD2(181-426), TargetConcentration 2.5e-8, ligand HIF2a-CODD peptide, MST-Power Medium, Excitation-Power 20 Nano - RED, hot region 19 to 20, unit of Kd not printed (doses of the same sheet are in M), Fig. 1c source data): 0.03648
No binding^a | HIF2α P531A: Class 1 mutant HIF2α-CODD peptide (Ac-ELDLETLAAYIPMDGEDFQL-NH2) | some evidence of aggrega?on at the highest concentra?on | – | –
– | HIF2α-CODD WT peptide (from UniProt Q99814 523-542) | – | – | Kd [5]: 34 µM

Molecule | Kd (MST-determined PHD2/HIFα-CODD complex dissociation constant) ([2]; MST) | Aggregation of PHD2 in MST experiments [1] | Binding to PHD2 (in words) ([2]; MST) | also measured
HIF2α WT-OH: synthetically hydroxylated WT HIF2α-CODD-OH peptide, negative control (Ac-ELDLETLA[Hyp]YIPMDGEDFQL-NH2; SMILES CC[C@H](C)[C@H](NC(=O)[C@H](Cc1ccc(O)cc1)NC(=O)[C@@H]1C[C@@H](O)CN1C(=O)[C@H](C)NC(=O)[C@H](CC(C)C)NC(=O)[C@@H](NC(=O)[C@H](CCC(=O)O)NC(=O)[C@H](CC(C)C)NC(=O)[C@H](CC(=O)O)NC(=O)[C@H](CC(C)C)NC(=O)[C@H](CCC(=O)O)NC(C)=O)[C@@H](C)O)C(=O)N1CCC[C@H]1C(=O)N[C@@H](CCSC)C(=O)N[C@@H](CC(=O)O)C(=O)NCC(=O)N[C@@H](CCC(=O)O)C(=O)N[C@@H](CC(=O)O)C(=O)N[C@@H](Cc1ccccc1)C(=O)N[C@@H](CCC(N)=O)C(=O)N[C@@H](CC(C)C)C(N)=O) | No Binding | no ag grega?on | did not bind to PHD2 | Binding to PHD2 (in words) ([2]; MST, listed as WT-OH HIF2α-CODD): no
